The RNAGym collection of RNA variant scans (doi:10.7554/elife.90254)

B1: OR4K15 (parent)
chain: GUUAACGGUCAUAGGCCAUGGAAACUAGGAGCACCAUUUCGCUGCCAGUGAAGAAAUGAACAAAGAAAAUCUGGGCCAGGCAGGCAUCAAAAGAAAUAGUCUUGCGCUCAACCAGAAAGUCUGUAAUCAUUUUAAGGGUA

Variants of: B1
Experiment: self-cleavage, relative activity (ratio to wild type); higher = more cleavage; in vitro, sequencing; the parent is a self-cleaving ribozyme

Row | Variant | self-cleavage
1 | U2A U139A | 1.04
2 | G106A U132C | 0.01
3 | A27G A67G | 1.25
4 | U39C A64C | 1.88
5 | A5U U132C | 1.4
6 | U108A U127C | 0
7 | G106C A129U | 0
8 | U120C G136A | 1.65
9 | A63G U108G | 0.03
10 | A55G C76A | 0.55
11 | U3G A24G | 0.8
12 | G48A A51G | 2.22
13 | U39A A67G | 1.5
14 | A22U G123U | 1.96
15 | A92C | 1.27
16 | A54G A59U | 0.71
17 | A51G C105U | 0.12
18 | A116U U127C | 0.23
19 | A54G A56G | 1.01
20 | U37C A64G | 1.54
21 | A86G A94U | 2.2
22 | U19C C61U | 1.56
23 | A55U A89U | 0.56
24 | U38C A90C | 1.62

Row | Variant | self-cleavage
25 | A52G U100G | 1.16
26 | A22U A66G | 1.5
27 | C25U U120A | 2.95
28 | U72A A135G | 0.21
29 | A64G U100A | 0.51
30 | A60U A111G | 0.05
31 | U43G A111G | 0.03
32 | A78C U131C | 0.17
33 | G29A U103C | 0.77
34 | A126G U139A | 0
35 | A91G U122A | 0.96
36 | A4U U127C | 1.34
37 | A63G G84A | 1.86
38 | G75C U122C | 0.12
39 | U124G A125U | 1.25
40 | C85U A140G | 1.26
41 | A64G U120A | 2.01
42 | C10U A110G | 0.19
43 | A96G A110G | 0.12
44 | G14A G106A | 0.02
45 | A111C U132C | 0.01
46 | A18U A114C | 0.03
47 | A51U A67G | 1.23
48 | C6A U57C | 0.36

Row | Variant | self-cleavage
49 | C10U A64G | 1.25
50 | U12C G99A | 0.97
51 | C85U A116U | 0.17
52 | G106A A126G | 0
53 | U2C U39A | 1.17
54 | U3A U122C | 1.35
55 | A59G U127A | 1.82
56 | A4G U70A | 1.14
57 | U9A A24C | 0.99
58 | A22G A52U | 1.02
59 | A56G G106U | 0.01
60 | G65C A111G | 0.01
61 | U26A A98G | 0.3
62 | U3C A134U | 0.67
63 | U43C A54G | 1.4
64 | A4G G41A | 1.43
65 | A95G G137A | 0.66
66 | A33G U72G | 0.14
67 | A11G | 0.77
68 | U2C U127C | 0.9
69 | A11U U39A | 1.34
70 | A4G U103A | 1.27
71 | G75A G93A | 0.14
72 | U12C A52G | 0.83

Row | Variant | self-cleavage
73 | U133C | 1.29
74 | A51G A98G | 0.29
75 | A13G U97C | 0.78
76 | A64C G80A | 0.2
77 | U37C A92U | 1.61
78 | A63G U120A | 0.94
79 | C25U U102A | 0.79
80 | G7A A22G | 1.42
81 | A114U U132A | 0.08
82 | A36U U49C | 2.04
83 | C42U C105U | 0.05
84 | A63U A86C | 1.78
85 | U102A A126G | 0.43
86 | G8A C32U | 2.12
87 | A18G A24C | 0.96
88 | A67G U120G | 1.4
89 | G44A G83A | 1.24
90 | A118G A125G | 0.1
91 | A67U A95G | 2.49
92 | U57C A118U | 0.37
93 | U102A U103C | 0.12
94 | A78G A114G | 0.05
95 | A66U A111G | 0.01
96 | U37A U38G | 2.08

Row | Variant | self-cleavage
97 | A33U A51U | 0.89
98 | G31U U102A | 2.03
99 | A30G A56U | 1.02
100 | U12C G28A | 1.29
101 | A23U U39C | 1.27
102 | A98G U130C | 0.41
103 | A33U U124C | 1.22
104 | A67G A90U | 1.13
105 | G1A A59G | 1.36
106 | A82G U127A | 0.58
107 | U37C A96G | 1.36
108 | A63G U127A | 1.47
109 | A5G A54U | 0.83
110 | A18U U100C | 2.18
111 | A56G G119A | 2.09
112 | G41A U127C | 1.22
113 | C10U A63U | 0.69
114 | U39C U122C | 1.84
115 | C45U U122G | 2.74
116 | A22G U100C | 1.69
117 | A36U G83A | 1.13
118 | C16A U124A | 0.4
119 | A27G A96U | 1.83
120 | A60U U120C | 0.7

Row | Variant | self-cleavage
121 | A59U A135G | 1.33
122 | U49A A126U | 1.59
123 | A33G U39A | 1.23
124 | A4C A111G | 0.04
125 | A23U A129U | 0.79
126 | A62U A116G | 1.13
127 | A54G U108C | 0.02
128 | A5G A86G | 0.63
129 | A60G C85U | 1.31
130 | A18U A47U | 0.78
131 | C76U | 0.05
132 | U38C U102C | 1.91
133 | A5G U19C | 0.96
134 | A47C A129G | 0.74
135 | A118G A140U | 1.28
136 | A60G A117G | 1.55
137 | A55C | 0.94
138 | A22U A63G | 1.45
139 | U49G U139G | 1.58
140 | C6U G74A | 0.46
141 | U57C A117C | 0.7
142 | G21A A67G | 1.78
143 | A23U A86G | 0.48
144 | U124C U131C | 0.8

Row | Variant | self-cleavage
145 | U26A U43C | 1.45
146 | A82U U127A | 0.04
147 | U43C A125U | 1.56
148 | U19A A22G | 1.09
149 | U57C A60G | 1.01
150 | A5U A60C | 1.78
151 | C46U A114G | 0.49
152 | U38G A118G | 0.95
153 | A56C | 1.33
154 | A23U G41C | 2.09
155 | U38G A86U | 1.6
156 | A52U A110G | 0.19
157 | A91C A96G | 1.39
158 | U9A A59G | 1.12
159 | A5G A67C | 0.63
160 | A24C A55G | 1.52
161 | A60G A68C | 1.57
162 | G106C U127C | 0
163 | A92G | 1.15
164 | A5G A111G | 0.08
165 | A22G A110G | 0.08
166 | A47G A134G | 0.84
167 | G41A A51C | 1.57
